According to paper PMC7615710 (2023):

Legend:
[1] = biological target: T1, ASPP2 C-terminal domain (CTD), tag cleaved (UniProt Q13625 925-1128); assay: ITC
T1 chain: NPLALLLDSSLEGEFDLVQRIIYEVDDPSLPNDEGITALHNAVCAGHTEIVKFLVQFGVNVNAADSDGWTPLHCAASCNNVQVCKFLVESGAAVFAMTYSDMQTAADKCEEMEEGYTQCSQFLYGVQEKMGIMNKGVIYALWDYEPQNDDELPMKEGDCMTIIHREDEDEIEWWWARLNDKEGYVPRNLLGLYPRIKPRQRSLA

[2] = biological target: T2, ASPP1 C-terminal domain (CTD), tag cleaved (UniProt Q96KQ4 887-1090); assay: ITC
T2 chain: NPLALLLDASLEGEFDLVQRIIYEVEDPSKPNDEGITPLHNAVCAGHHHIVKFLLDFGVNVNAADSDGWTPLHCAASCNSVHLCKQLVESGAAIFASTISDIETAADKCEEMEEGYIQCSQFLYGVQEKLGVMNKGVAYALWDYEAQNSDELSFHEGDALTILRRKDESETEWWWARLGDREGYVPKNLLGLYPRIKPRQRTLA

LPPPKKAPTPPPRRRRTVGL [NS5A PRR peptide of HCV strain JFH-1 (20 aa)]
Kd [1]: 42.4 nM
Kd [2]: 3780 nM
